Some targets named below: HLA-A*02:02; HLA-A*02:03; HLA-A*02:06.
What all share (assay): IEDB peptide-MHC binding, purified MHC/competitive/radioactivity; filed as Kd, often an IC50 or EC50 that approximates it; ≥ and ≤ were set here for values at or beyond the usual limits of such assays
The mark [1] stands for this setting: source organism: Vaccinia virus WR.
The mark [2] stands for this setting: source organism: SARS coronavirus Tor2.
[3] abbreviates: source organism: Mammarenavirus machupoense.

Where only a bound is given, the exact number is not on record here.

Broadly, the Kd is a measure of binding affinity in units of concentration.

With HTYHLENDKI, the results for the Kd with HLA-A*02:02 (setting [1]), with HLA-A*02:03 (setting [1]) and with HLA-A*02:06 (setting [1]) were 1790 nM, 13700 nM and 1990 nM, respectively.
For NASKTINALV, the dissociation constant Kd in the experiment with HLA-A*02:02 (setting [1]) turned out to be 765 nM; with HLA-A*02:03 (setting [1]), 274 nM; with HLA-A*02:06 (setting [1]), 3220 nM.
On the same counts, the results for ELTTVFIKYV are 2790 nM, 719 nM and 463 nM.
For SLDQTHIKTI, the dissociation constant (Kd) with HLA-A*02:02 (setting [1]) was 1430 nM; in the experiment with HLA-A*02:03 (setting [1]), 14.6 nM; with HLA-A*02:06 (setting [1]), 2460 nM.
On to ALVLLILMTA, for which the dissociation constant (Kd) with HLA-A*02:02 (setting [2]) turned out to be 67.2 nM; with HLA-A*02:03 (setting [2]), 50.7 nM; in the experiment with HLA-A*02:06 (setting [2]), 61.4 nM.
As for IVDTVSALV, the equilibrium dissociation constant (Kd) in the experiment with HLA-A*02:02 (setting [2]) was found to be 16.6 nM; in the experiment with HLA-A*02:03 (setting [2]) it was 528 nM; with HLA-A*02:06 (setting [2]), 42.9 nM.
On to DIPTFNSLNT, for which the Kd with HLA-A*02:02 (setting [1]) came out at 2020 nM; with HLA-A*02:03 (setting [1]), 16600 nM; with HLA-A*02:06 (setting [1]), 45.3 nM.
Turning to VVHGYFTEV, the Kd with HLA-A*02:02 (setting [2]) came out at 17.2 nM; with HLA-A*02:03 (setting [2]) it was 3.27 nM; with HLA-A*02:06 (setting [2]), 2.63 nM.
As for ILFQNNDINA, the Kd with HLA-A*02:02 (setting [1]) came out at 23.3 nM; with HLA-A*02:03 (setting [1]), 407 nM; with HLA-A*02:06 (setting [1]), 3180 nM.
As to LNKSDSSWAV, the dissociation constant Kd with HLA-A*02:02 (setting [3]) was found to be 550 nM; with HLA-A*02:03 (setting [3]), 5250 nM; with HLA-A*02:06 (setting [3]), 2190 nM.
Turning to VQEFIFSAL, the results for the dissociation constant (Kd) with HLA-A*02:02 (setting [1]), with HLA-A*02:03 (setting [1]) and with HLA-A*02:06 (setting [1]) were 419 nM, 466 nM and 198 nM, respectively.
In the case of TAIRAGYSIV, the equilibrium dissociation constant (Kd) in the experiment with HLA-A*02:02 (setting [1]) was 6820 nM; with HLA-A*02:03 (setting [1]), 71.8 nM; in the experiment with HLA-A*02:06 (setting [1]), 8590 nM.
For the sequence KILSDENYLL, the equilibrium dissociation constant (Kd) in the experiment with HLA-A*02:02 (setting [1]) amounted to 25.2 nM; in the experiment with HLA-A*02:03 (setting [1]), 3770 nM; with HLA-A*02:06 (setting [1]), 15.6 nM.
As for MMNERDVSV, the Kd with HLA-A*02:02 (setting [1]) stood at 0.441 nM; in the experiment with HLA-A*02:03 (setting [1]), 0.27 nM; with HLA-A*02:06 (setting [1]) it was 63.9 nM.
IAVFDSKLI: the results for the Kd in the experiment with HLA-A*02:02 (setting [1]), in the experiment with HLA-A*02:03 (setting [1]) and with HLA-A*02:06 (setting [1]) were 7850 nM, 11900 nM and 11900 nM, respectively.
For IVNSVLLFL, the Kd with HLA-A*02:02 (setting [2]) worked out at 7.06 nM; in the experiment with HLA-A*02:03 (setting [2]) it was 179 nM; with HLA-A*02:06 (setting [2]), 30.5 nM.
As for NQLDSSNKSM, the Kd was 1780 nM in the experiment with HLA-A*02:02 (setting [1]), at least 30000 nM in the experiment with HLA-A*02:03 (setting [1]) and 635 nM in the experiment with HLA-A*02:06 (setting [1]).
With LVSDCASTI, the equilibrium dissociation constant (Kd) in the experiment with HLA-A*02:02 (setting [1]) was found to be 48.9 nM; in the experiment with HLA-A*02:03 (setting [1]), 17.2 nM; with HLA-A*02:06 (setting [1]), 61.3 nM.
For the sequence PASISSVLTI, the values for the Kd with HLA-A*02:02 (setting [1]), with HLA-A*02:03 (setting [1]) and in the experiment with HLA-A*02:06 (setting [1]) were 1360 nM, 83.3 nM and 1550 nM, respectively.
For ALDGVLSTFV, the Kd was determined as 3.26 nM with HLA-A*02:02 (setting [2]), 27.9 nM with HLA-A*02:03 (setting [2]) and 140 nM with HLA-A*02:06 (setting [2]).
Turning to FLDWIKDIM, the equilibrium dissociation constant (Kd) was 0.78 nM in the experiment with HLA-A*02:02 (setting [1]), 297 nM with HLA-A*02:03 (setting [1]) and 162 nM with HLA-A*02:06 (setting [1]).
On to MLLNVQTLI, for which the Kd with HLA-A*02:02 (setting [1]) is 0.169 nM; in the experiment with HLA-A*02:03 (setting [1]) it was 0.25 nM; with HLA-A*02:06 (setting [1]), 0.219 nM.
As for IVPDIKLDA, the figures for the Kd with HLA-A*02:02 (setting [1]), with HLA-A*02:03 (setting [1]) and with HLA-A*02:06 (setting [1]) were 6390 nM, 15700 nM and 3430 nM, respectively.
With CTMERTNDL, the figures for the dissociation constant (Kd) with HLA-A*02:02 (setting [1]), with HLA-A*02:03 (setting [1]) and with HLA-A*02:06 (setting [1]) were 36.2 nM, 25.5 nM and 95.7 nM, respectively.
As for MLPESDLDKV, the Kd stood at 3.23 nM in the experiment with HLA-A*02:02 (setting [1]), 1770 nM with HLA-A*02:03 (setting [1]) and 4.42 nM with HLA-A*02:06 (setting [1]).
Consider LISFFGLFDI, for which the Kd stood at 75.9 nM with HLA-A*02:02 (setting [1]), 108 nM in the experiment with HLA-A*02:03 (setting [1]) and 171 nM with HLA-A*02:06 (setting [1]).
Taken in the same sequence, the figures for NTFVNFNSV were 5020 nM, 99.6 nM and 0.346 nM.
Consider PLISILMIFI, for which the results for the dissociation constant (Kd) with HLA-A*02:02 (setting [1]), in the experiment with HLA-A*02:03 (setting [1]) and in the experiment with HLA-A*02:06 (setting [1]) were 433 nM, 769 nM and 2420 nM, respectively.
Turning to KLLSTSNVIT, the figures for the Kd with HLA-A*02:02 (setting [1]), in the experiment with HLA-A*02:03 (setting [1]) and with HLA-A*02:06 (setting [1]) were 2260 nM, 3350 nM and 1550 nM, respectively.
Taken in the same sequence, the figures for SMYTRLRQDT were 6560 nM, 1140 nM and at least 42200 nM.

Values taken from the Immune Epitope Database (IEDB).
